Experiment [1] has as its target 1VQO_U_ES-ferritin (UniProt Q9ZLI1). Description: native gel or EMSA; blue native (BN) PAGE of the purified nanoparticle, Coomassie blue staining.
The target in experiment [2] is T1, 1VQO_U_ES-ferritin (UniProt Q9ZLI1).
T1 construct: ferritin subunit beginning at Asp5; 24 copies on the particle; also called E1 nanoparticle antigen; source: HEK293F, transiently expressed, purified (Ni Sepharose excel, SEC); copies: 24
Description: ELISA; HCV antigen coated on 96-well plates overnight at 4 °C; antibody added at a maximum of 2 μg/ml in a 5-fold dilution series, 1 h at RT; detected with peroxidase goat anti-human IgG, read at 450 nm. The note with it: both partners purified. For orientation: ELISA stands for enzyme-linked immunosorbent assay.

As for “1VQO_U_ES-ferritin (from UniProt Q9ZLI1 5-167)”, the stoichiometry N – broadly, a count of units in the complex or per binding partner – with 1VQO_U_ES-ferritin [1] worked out at 24.

B1: human neutralizing antibody IGH526 (antibody, V domains shown)
VH: VQLLEQSGAEVKRPGASVKVSCKASGYTFTSYAIHWVRQAPGQRLEWMGWINPGNGNAKYSQRFQGRVIISRDTSATTSYMELSSLTSEDTAVYSCARDRGFDLLTGHYLGLDPWGQGTLVTVSS
VL: ELTLTQPASASATPGQRVTISCSGSSSNIGGNTVNWYQHLPGAAPKLLIHNNDLRPSGVPDRFSGSKSGTSASLAVSGLQSEDEADYFCAAWDDGLNGWVFGGGTKLTVL
notes: Captured on anti-human Fc biosensors and detected with anti-human IgG, so it carried a human Fc in the assays; also called nAb IGH526
Consider B1, for which the binding result with 1VQO_U_ES-ferritin [2] is given as “binds”.

These data come from publication PMC4533164, “Approaching rational epitope vaccine design for hepatitis C virus with meta-server and multivalent scaffolding” (Scientific Reports, 2015).
